Assay results: article PMC4103192 (Biochemical and biophysical research communications, 2010)

Legend:
SEC = target: the molecule itself; assay: SEC
[1] = target: human hepatic cytochrome P450 CYP3A4 in POPC Nanodiscs (human) (UniProt P08684); assay: SEC
[2] = target: human hepatic cytochrome P450 CYP3A4 in POPC Nanodiscs (human) (UniProt P08684); assay: steady-state enzyme activity titration

B1: full-length rat NADPH dependent cytochrome P450 reductase (enzyme, UniProt P00388 1-678, looked up)
chain: MGDSHEDTSATMPEAVAEEVSLFSTTDMVLFSLIVGVLTYWFIFRKKKEEIPEFSKIQTTAPPVKESSFVEKMKKTGRNIIVFYGSQTGTAEEFANRLSKDAHRYGMRGMSADPEEYDLADLSSLPEIDKSLVVFCMATYGEGDPTDNAQDFYDWLQETDVDLTGVKFAVFGLGNKTYEHFNAMGKYVDQRLEQLGAQRIFELGLGDDDGNLEEDFITWREQFWPAVCEFFGVEATGEESSIRQYELVVHEDMDVAKVYTGEMGRLKSYENQKPPFDAKNPFLAAVTANRKLNQGTERHLMHLELDISDSKIRYESGDHVAVYPANDSALVNQIGEILGADLDVIMSLNNLDEESNKKHPFPCPTTYRTALTYYLDITNPPRTNVLYELAQYASEPSEQEHLHKMASSSGEGKELYLSWVVEARRHILAILQDYPSLRPPIDHLCELLPRLQARYYSIASSSKVHPNSVHICAVAVEYEAKSGRVNKGVATSWLRAKEPAGENGGRALVPMFVRKSQFRLPFKSTTPVIMVGPGTGIAPFMGFIQERAWLREQGKEVGETLLYYGCRRSDEDYLYREELARFHKDGALTQLNVAFSREQAHKVYVQHLLKRDREHLWKLIHEGGAHIYVCGDARNMAKDVQNTFYDIVAEFGPMEHTQAVDYVKKLMTKGRYSLDVWS
binding result (SEC): binds | stoichiometry N (CPR per CYP3A4) [1]: 1 | Kd [2]: 10 to 50 nM
